{
  "source": "paper PMC3082530",
  "about": "(2011)",
  "key": {"subtilisin Carlsberg [1]": {"target": "T1, subtilisin Carlsberg (Bacillus licheniformis, UniProt P00780)", "T1 chain": "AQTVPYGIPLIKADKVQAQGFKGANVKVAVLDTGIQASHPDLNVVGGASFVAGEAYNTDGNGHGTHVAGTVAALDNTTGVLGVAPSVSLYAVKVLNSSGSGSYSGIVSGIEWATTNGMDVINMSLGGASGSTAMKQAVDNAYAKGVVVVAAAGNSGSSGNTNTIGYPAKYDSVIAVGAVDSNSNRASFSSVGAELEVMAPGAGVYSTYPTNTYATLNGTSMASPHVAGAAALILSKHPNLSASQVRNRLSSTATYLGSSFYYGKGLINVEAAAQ", "experiment": "ITC"}, "subtilisin Carlsberg [2]": {"target": "T1, subtilisin Carlsberg", "experiment": "ITC; given as Ka"}},
  "data": [
    {"binder": "VCTEEY", "note": "[VCTEEY peptide (CrSPI-1 domain 2 RSL)]", "values": [
      {"measurement": "Kd", "setting": "subtilisin Carlsberg [1]", "result": 500, "unit": "µM"},
      {"measurement": "Kd", "setting": "subtilisin Carlsberg [2]", "result": 526, "unit": "µM"}
    ]}
  ]
}
